Results reported in publication PMC10873366, “DNA binding redistributes activation domain ensemble and accessibility in pioneer factor Sox2”.

What was measured:
[1] = target: Sox2 DBD labelled at 37 and 120 (UniProt P48431 37-120, S37C;M120C); assay: smFRET titration; 200 mM salt; labelled protein; smFRET: 165 mM KCl or 200 mM salt (Supplementary Table 4), buffer details not in material; NMR: 20 mM NaH2PO4, 50 mM NaCl, 5 mM DTT, pH 5.5, 15 C; conditions: protein: recombinant; tags: His6-SUMO removed by ULP1; blunt
[2] = target: T1, Sox2 DBD, isolated, unlabelled (UniProt P48431 37-120); assay: smFRET titration; 200 mM salt (table; text gives 165 mM KCl); smFRET: 165 mM KCl or 200 mM salt (Supplementary Table 4), buffer details not in material; NMR: 20 mM NaH2PO4, 50 mM NaCl, 5 mM DTT, pH 5.5, 15 C; conditions: protein: recombinant; tags: His6-SUMO removed by ULP1; label: Cy3B and CF660R, one on each 5' end; blunt
[3] = target: T2, Sox2 full-length, unlabelled (UniProt P48431 1-317); assay: as above; conditions: protein: recombinant; tags: His6-SUMO removed by ULP1; label: Cy3B and CF660R, one on each 5' end; blunt
[4] = target: T1, Sox2 DBD, isolated, unlabelled; assay: smFRET titration; 200 mM salt; smFRET: 165 mM KCl or 200 mM salt (Supplementary Table 4), buffer details not in material; NMR: 20 mM NaH2PO4, 50 mM NaCl, 5 mM DTT, pH 5.5, 15 C; conditions: protein: recombinant; tags: His6-SUMO removed by ULP1; label: Cy3B and CF660R, one on each 5' end; blunt
[5] = target: T2, Sox2 full-length, unlabelled; assay: as above; conditions: protein: recombinant; tags: His6-SUMO removed by ULP1; label: Cy3B and CF660R, one on each 5' end; blunt
[6] = target: T2, Sox2 full-length, unlabelled; assay: NMR (1H15N HSQC CSP); 30 uM Sox2, 1.1-fold DNA, 50 mM NaCl, pH 5.5, 15 C; smFRET: 165 mM KCl or 200 mM salt (Supplementary Table 4), buffer details not in material; NMR: 20 mM NaH2PO4, 50 mM NaCl, 5 mM DTT, pH 5.5, 15 C; conditions: protein: recombinant; tags: His6-SUMO removed by ULP1; blunt
[7] = target: Sox2 full-length labelled in the C-IDR (UniProt P48431 1-317, M120C;S315C); assay: smFRET (C-IDR expands, E 0.43 to 0.28); smFRET: 165 mM KCl or 200 mM salt (Supplementary Table 4), buffer details not in material; NMR: 20 mM NaH2PO4, 50 mM NaCl, 5 mM DTT, pH 5.5, 15 C; conditions: protein: recombinant; tags: His6-SUMO removed by ULP1; blunt
Chain of Sox2 full-length labelled in the C-IDR (P48431 whole entry M120C/S315C): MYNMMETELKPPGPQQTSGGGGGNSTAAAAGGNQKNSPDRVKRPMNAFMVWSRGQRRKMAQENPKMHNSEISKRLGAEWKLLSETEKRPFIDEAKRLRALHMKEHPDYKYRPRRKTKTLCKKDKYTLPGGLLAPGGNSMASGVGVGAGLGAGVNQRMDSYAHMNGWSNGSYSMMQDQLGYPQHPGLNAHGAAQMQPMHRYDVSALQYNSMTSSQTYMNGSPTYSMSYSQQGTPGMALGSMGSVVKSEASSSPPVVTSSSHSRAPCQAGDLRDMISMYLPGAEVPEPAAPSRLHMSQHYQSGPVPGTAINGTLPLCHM

T2 sequence (P48431 whole entry): as the sequence (P48431 whole entry M120C/S315C) above, with C120M, C315S counted along it
T1 sequence (P48431 37-120): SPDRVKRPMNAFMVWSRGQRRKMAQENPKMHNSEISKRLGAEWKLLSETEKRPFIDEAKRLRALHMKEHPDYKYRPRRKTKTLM
Chain of Sox2 DBD labelled at 37 and 120 (P48431 37-120 S37C/M120C): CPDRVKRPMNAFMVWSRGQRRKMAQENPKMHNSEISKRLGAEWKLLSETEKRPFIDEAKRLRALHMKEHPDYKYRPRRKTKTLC

B1: 30 bp specific DNA (dsDNA)
DNA 1: ATCCCATTAGCATCCAAACAAAGAGTTTTC
DNA 2: GAAAACTCTTTGTTTGGATGCTAATGGGAT
[1]
  Kd: 300 ± 200 pM

B2: 15 bp specific DNA, labelled (dsDNA)
DNA 1: ACTCTTTGTTTGGAT
DNA 2: ATCCAAACAAAGAGT
modifications: 5' C6-amino linker on both strands
[2]
  Kd: 300 ± 100 pM
[3]
  Kd: 400 ± 200 pM

B3: 15 bp nonspecific DNA, labelled (dsDNA)
DNA 1: TCTATCTGTGTATGT
DNA 2: ACATACACAGATAGA
modifications: 5' C6-amino linker on both strands
[4]
  Kd: 11000 ± 4000 pM
[5]
  Kd: 6000 ± 2000 pM

B4: 15 bp specific DNA, unlabelled (dsDNA)
DNA 1: ACTCTTTGTTTGGAT
DNA 2: ATCCAAACAAAGAGT
[6]
  binding result: binds
[7]
  binding result: binds
